Laboratory results published in patent US20110275122A1 (Amgen, published 2011).

Target: T1, c-mpl receptor (Homo sapiens (Human), UniProt P40238 26-491, The MPL used for panning was biotinylated; the biotin site is not stated and is not carried by the letters.)
T1 construct: also called TPO receptor
T1 sequence: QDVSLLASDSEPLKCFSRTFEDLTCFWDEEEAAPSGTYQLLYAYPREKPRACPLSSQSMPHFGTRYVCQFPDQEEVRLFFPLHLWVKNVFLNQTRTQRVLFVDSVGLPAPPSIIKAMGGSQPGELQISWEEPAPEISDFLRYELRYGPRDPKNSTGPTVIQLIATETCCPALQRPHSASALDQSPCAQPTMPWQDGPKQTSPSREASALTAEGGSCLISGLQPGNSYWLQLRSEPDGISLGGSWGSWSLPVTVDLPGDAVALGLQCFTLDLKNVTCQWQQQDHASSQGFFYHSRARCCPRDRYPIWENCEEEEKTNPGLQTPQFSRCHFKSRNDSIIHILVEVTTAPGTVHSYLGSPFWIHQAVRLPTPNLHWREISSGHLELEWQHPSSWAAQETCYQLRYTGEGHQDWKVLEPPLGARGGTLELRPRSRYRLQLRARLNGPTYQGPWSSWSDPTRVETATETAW
Test: phage-ELISA

IEGPTFKQWQKWRKTHS [SEQ ID NO: 274]
Relative activity: 105

IEGWIWRQWLAARA [SEQ ID NO: 286]
Relative activity: 91.4

IEGWVWCQWLAARA [SEQ ID NO: 290]
Relative activity: 79.1

IEGWVWWPWLAARA [SEQ ID NO: 296]
Relative activity: 63.5

IEGWVWRQWLAARA [SEQ ID NO: 301]
Relative activity: 52.1

IEGWIWRPWLAARA [SEQ ID NO: 287]
Relative activity: 83.3

IEGWWWQFYAHPQGDHS [SEQ ID NO: 281]
Relative activity: 95

IEGWTWQFYAHPQGDHS [SEQ ID NO: 317]
Relative activity: 24.2

IEGWPWQFYAHPQGDHS [SEQ ID NO: 289]
Relative activity: 80.3

IEGWSWQFYAHPKGDHS [SEQ ID NO: 300]
Relative activity: 52.6

B1: SEQ ID NO: 250 (peptide)
peptide: IEGRWPPPQFPVTQQHSLERVGRPPPSVELPRPTFVCAQIEGPTFKQWQRCLREHS
Relative activity: 149

IEGPTLHEWLRWLRQHS [SEQ ID NO: 291]
Relative activity: 78.3

IEGPTFKQWQKSRTKHS [SEQ ID NO: 263]
Relative activity: 124

IEGPTFKQWQVRQKTHS [SEQ ID NO: 276]
Relative activity: 105

B2: SEQ ID NO: 246 (peptide)
peptide: IEGQSWEFENDRVPAHSLERVLLLRRVPTEPSGPSICAQIEGPTFKQWQECINGHS
Relative activity: 173

B3: SEQ ID NO: 284 (peptide)
peptide: IEGHGSQKPTAARALESTSSLTTRTRTTSICAQQDMVGPTIRQWLAARACI
Relative activity: 92.1

IEGPTFKQWQKCRNMHS [SEQ ID NO: 247]
Relative activity: 164

IEGQSWLRRLHWKEEHS [SEQ ID NO: 272]
Relative activity: 108

IEGWWWQLYFHAKDDHS [SEQ ID NO: 260]
Relative activity: 126

IEGPSFTPWFHERRSHS [SEQ ID NO: 268]
Relative activity: 110

IEGWSWQFYFHAKGDHS [SEQ ID NO: 277]
Relative activity: 104

IEGPTFKQWQACLHSHS [SEQ ID NO: 266]
Relative activity: 114

B4: SEQ ID NO: 249 (peptide)
peptide: IEGEPVSDGKRRPRVHSLERVDAVHAKVGPSICAQIEGPTFKQWQKCKRAHS
Relative activity: 150

IEGPTFKQWQGRSKRHS [SEQ ID NO: 258]
Relative activity: 131

IEGYWWYASWAARA [SEQ ID NO: 288]
Relative activity: 80.4

B5: SEQ ID NO: 257 (peptide)
peptide: IEGYVGGPYEQTNSLERVPPTLAWKYGPRTPSICAQIEGPTFKQWQQCLSDHS
Relative activity: 131

IEGPTFKQWQAARMHHS [SEQ ID NO: 265]
Relative activity: 122

IEGRTWQLYFHAKEEHS [SEQ ID NO: 278]
Relative activity: 102

IEGPTFKQWQAWRKKHS [SEQ ID NO: 252]
Relative activity: 146

IEGPTFKQWQYWRAKHS [SEQ ID NO: 275]
Relative activity: 105

IEGPTFKQWQWLRRHHS [SEQ ID NO: 269]
Relative activity: 109

IEGPTFKQWQMLRRHHS [SEQ ID NO: 328]
Relative activity: 12.5

IEGWWWQFYFHAKEDHS [SEQ ID NO: 255]
Relative activity: 136

IEGWWWQFYFHPKEDHS [SEQ ID NO: 262]
Relative activity: 124

IEGPTFKQWQRWRKMHS [SEQ ID NO: 253]
Relative activity: 144

IEGPTFKQWQKLRRVHS [SEQ ID NO: 248]
Relative activity: 155

IEGPTFKQWQKLRRSHS [SEQ ID NO: 261]
Relative activity: 125

IEGPTFEQWQHWRRGHS [SEQ ID NO: 285]
Relative activity: 91.5

IEGWPWQLYVHPEGEHS [SEQ ID NO: 259]
Relative activity: 129

IEGWPRQLYAHAKEDHS [SEQ ID NO: 280]
Relative activity: 95.6

IEGPTLRQRLAARA [SEQ ID NO: 299]
Relative activity: 57.3

IEGPTLRQWLAARA (Positive control of the phage-ELISA) [IEGPTLRQWLAARA (positive control)]
Relative activity: 150

IEGWTWQFYVHPKGDHS [SEQ ID NO: 264]
Relative activity: 122

B6: SEQ ID NO: 254 (peptide)
peptide: IEGRWPPPQFPVTEHHSLERVGRRPPNAQMPQSIFICGQNEGPTFQYCQRCLREHS
Relative activity: 137

IEGPTFKQWQVWRNRHS [SEQ ID NO: 271]
Relative activity: 108

PSICAQIEGPTFKQWQTCMRAHS [SEQ ID NO: 256]
Relative activity: 133

IEGPTFKQWQRWRLLHS [SEQ ID NO: 251]
Relative activity: 149

IEGWWWQFYVHAKGDHS [SEQ ID NO: 270]
Relative activity: 109
